The values that follow come from PMC7489894 (Biochemical Journal, 2020).

Where no end group is shown, it is not given here.

Assay [1] deals with HyBcl-2-4. Briefly: ITC binding of BH3 motif peptides to HyBcl-2-4. Conditions: read-out: KD (dissociation constant), HyBcl-2-4, MicroCal iTC200, 25°C, tag-free HyBcl-2-4 lacking 30 C-terminal residues, 25 mM Hepes pH 7.5, 150 mM NaCl, means of 3 experiments ± SD, NB: no binding detected. On the set-up: species or system Hydra vulgaris.
The target in assay [2] is T1, human A1/Bfl-1 (residues 1-151) (human, UniProt Q16548 1-151).
T1 sequence (looked up): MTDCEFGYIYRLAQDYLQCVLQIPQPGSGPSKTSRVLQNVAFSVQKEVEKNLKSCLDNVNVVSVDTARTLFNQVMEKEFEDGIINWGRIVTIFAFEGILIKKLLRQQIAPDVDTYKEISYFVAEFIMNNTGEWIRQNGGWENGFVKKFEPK
Description: ITC. A general note: ITC needs no label: the signal is the heat of the interaction.

In assay [3] the target is human Mcl-1 (residues 171-320) (human, UniProt Q07820 171-320). Description: ITC.
human Mcl-1 (residues 171-320), sequence (Q07820 171-320): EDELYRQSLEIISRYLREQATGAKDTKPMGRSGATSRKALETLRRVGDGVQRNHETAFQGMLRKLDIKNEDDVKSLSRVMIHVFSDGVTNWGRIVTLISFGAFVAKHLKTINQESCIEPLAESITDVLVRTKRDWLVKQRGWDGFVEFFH
The target of assay [4] is human Bcl-xL (residues 1-209 Δloop45-84) (human, UniProt Q07817-1 1-209, Δloop45-84). Briefly: ITC.
Assay [5] has as its target T2, human Bcl-w (residues 9-152) (human, UniProt Q92843 9-152).
T2 sequence (looked up): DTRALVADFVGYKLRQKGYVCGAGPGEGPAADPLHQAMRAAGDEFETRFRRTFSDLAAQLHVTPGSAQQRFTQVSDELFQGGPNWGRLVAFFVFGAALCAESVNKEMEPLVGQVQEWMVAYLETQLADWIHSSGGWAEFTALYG
Description: ITC.

Assay [6] deals with human Bcl-2 (residues 10-203) (human, UniProt P10415 10-203). Description: ITC.
human Bcl-2 (residues 10-203), sequence (P10415 10-203): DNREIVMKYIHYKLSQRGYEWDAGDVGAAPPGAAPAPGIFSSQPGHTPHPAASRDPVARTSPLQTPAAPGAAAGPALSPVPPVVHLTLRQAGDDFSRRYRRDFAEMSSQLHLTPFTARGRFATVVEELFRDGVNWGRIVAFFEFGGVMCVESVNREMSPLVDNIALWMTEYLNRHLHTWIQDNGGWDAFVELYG
In assay [7] the target is HyBcl-2-4 lacking 30 C-terminal residues (fusion tag-free) (Hydra vulgaris). Description: ITC.

The Kd is a measure of binding affinity in units of concentration. As for SMRRLRAIGACLRAIGDDIQSRSEKS [HyBH3-only], the equilibrium dissociation constant (Kd) in assay [1] came to 149 nM.
Regarding SNGETENLGRVLASFGDEINDKYRQV [HyBak1 BH3 motif peptide], the binding result in assay [2], in assay [4], in assay [5] and in assay [6] was “binds” each time. The same molecule displayed a Kd in assay [3] of 67 nM.
SMRRLRAIGACLRAIGDDIQSRSEKS [HyBH3-only-2 BH3 motif peptide]: the binding result in assay [2], in assay [4], in assay [5] and in assay [6] was “binds” each time. The results for the Kd in assay [3] and in assay [7] were 50 nM and 149 nM, respectively.
For SRNGTVNKEVAHCLKRIGDDLVNNHQLN [HyBax BH3 motif peptide], the binding result in assay [2], in assay [4], in assay [5] and in assay [6] was “binds” each time. Also, the Kd stood at 41 nM in assay [3] and 2290 nM in assay [7].
